Molecular target: mouse CD47-Fc (mouse) (UniProt Q61735)
Test: bio-light interferometry (ForteBio), antibody on AHQ tip, mouse CD47-Fc 100 nM in solution, bivalent

Chain of mouse CD47-Fc (mouse) (Q61735 19-140 limits assumed): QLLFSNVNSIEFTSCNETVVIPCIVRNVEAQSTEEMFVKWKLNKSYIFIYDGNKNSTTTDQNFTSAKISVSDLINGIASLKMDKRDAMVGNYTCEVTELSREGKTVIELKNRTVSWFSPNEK
Chain of Hu5F9, control anti-CD47 antibody transiently expressed in 293 HEK cells (VH): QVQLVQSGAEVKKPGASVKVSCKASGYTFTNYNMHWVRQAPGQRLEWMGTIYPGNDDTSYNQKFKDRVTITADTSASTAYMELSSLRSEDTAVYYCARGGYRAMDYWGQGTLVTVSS
Chain of Hu5F9, control anti-CD47 antibody transiently expressed in 293 HEK cells (VL): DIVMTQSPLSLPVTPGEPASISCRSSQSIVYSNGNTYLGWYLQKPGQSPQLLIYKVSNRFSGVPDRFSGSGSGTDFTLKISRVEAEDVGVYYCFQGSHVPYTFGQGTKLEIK

Hu5F9, control anti-CD47 antibody transiently expressed in 293 HEK cells
Kd: 12.7 nM

Source: US20200181259A1
